In patent publication US20210275498A1, “IMIDAZOLYL ETHANAMIDE PENTANDIOIC ACID FOR USE IN THERAPY OF SYMPTOMS RELATED TO EXPOSURE TO LETHAL RADIATION” (priority 2018, published 2021):

How the values were obtained:
Type in all cases: in vivo
C57BL/6 mice [1] = test: ARS scoring (posture, coat, behavior) after whole-body irradiation; design: key to Supporting variable: ARS scores (trend): positive trend (descriptively) +; negative trend (descriptively) −; no difference (descriptively) 0; details: Group 6 GL (SCx1): 0.34 mg/kg SC SID Day 1, 2, 3, therapeutic, 5.8 Gy
Method: Scores on a scale of 1 to 4 (minimal, mild, moderate and severe) for posture, coat, and behavior were recorded twice daily per SNBL SOP, beginning on Day −3, except on the day of scheduled necropsy when scoring occurred only once. Observations were performed by 5 individuals during the course of the study.
After Day 0, the first ARS scoring began in the morning and the second ARS scoring began 4 to 6 hours following the completion of the morning ARS scoring. On the day of scheduled necropsy, ARS scoring occurred in the morning, prior to necropsy.
(§1) Based on the ARS Scoring SNBL SOP, if the sum of the three parameter scores totaled 8 or higher, the animal was considered moribund and was euthanized with an unscheduled necropsy performed according to the moribund animal SOP.

C57BL/6 mice [2] = test: Mortality / survival to Day 30 after whole-body irradiation (5.8 Gy or 6.0 Gy); details: Group 6 GL (SCx1): 0.34 mg/kg SC SID Day 1, 2, 3, therapeutic, 5.8 Gy
Description: Based on a previously reported study (Williams et al. 2010, Plett et al. 2012, Chua et al. 2014, Singh et al., 2015), the mouse model was developed to investigate LD25 and LD50. The whole-body irradiation and selected dose serve as a translational in vivo model mimicking possible radiation exposure to humans following a nuclear incident.
Animals (C57BL/6 mice) were supplied by Jackson Laboratories (Bar Harbor, Me. facility). Animals were maintained at SNBL USA (Everett, Wash. facility) as stock prior to study assignment and were screened for health by veterinary staff prior to use on study. 205 animals were assigned to treatment groups.
Oral application of Myelo001 would be conducive for nuclear or other radiation incidents and was chosen for this study. […] The human equivalent dose is estimated to be 4 mg/kg based on allometric calculations.
as §1
Cageside mortality checks were conducted per SOP, twice daily after Day −3. Morning and afternoon checks began 2 to 3 hours after the completion of the respective ARS scorings. Individual assessments were only documented for apparently moribund animals by re-scoring, or for found dead animals by removal.
Survival data were summarized descriptively and graphically using the Kaplan-Meier method. Further, death rates were tabulated by treatment. The equality of two or more survivor curves was tested with log rank tests. In addition, Cox-regression models were used to estimate hazard ratios, p-values and 95% confidence intervals (95% CI).
The focus of the survival analysis is irradiation related death between irradiation on Day 0 and Day 30. Thus, the scheduled necropsies on Day 7 and Day 14 or deaths unrelated to radiation (Animals 2041, 9012 and 9021) were considered as censored events.

C57BL/6 mice [3] = test: Body weight after whole-body irradiation (response profile analysis); details: Group 6 GL (SCx1): 0.34 mg/kg SC SID Day 1, 2, 3, therapeutic, 5.8 Gy
Method: Body weights were assessed twice during acclimation (including Day −3), once prior to irradiation (Day 0), and every 3 days thereafter. Terminal body weights were also collected, with the exception of Animal 4012.
The longitudinal data were analyzed taking into account the mean weight over time in each group and the covariance among the repeated measures by response profile analysis (Fitzmaurice et al., Wiley 2004, p 103-140.). The analysis was specified as a regression model with unstructured covariance to account for the correlation among repeated body weights of the same mouse and indicator variables for treatment groups and time, where the vehicle treatment was used as the reference group and Day 0 was taken as a reference for time.
The response profile analyses provide the following regression coefficients estimated by the restricted maximum likelihood (REML) method: intercept—mean body weight in the reference groups VL (POx1);2 and VH (POx1);8 at Day 0 treatment—difference between the mean body weight in the treatment groups and the vehicle groups at Day 0 time—body weight change from baseline in the reference groups treatment×time—treatment effect at each day estimated by comparison of change from baseline in the treatment groups and control groups For all regression coefficients, p-values and 95%-confidence intervals are provided. This method provides interpretable estimates, is valid if treatment groups differ at baseline, allows for arbitrary patterns in the mean body weight over time (no specific time trend e. g. linear curve assumed) and arbitrary patterns in the covariance. The analysis has certain robustness, as potential risks due to model misspecification are minimal.

C57BL/6 mice [4] = test: Gross pathology and histopathology (testes degeneration, bone marrow cellularity) after whole-body irradiation; design: key to Supporting variable: Bone marrow celluarity (trend) / Supporting variable: Testes degradation (trend): positive trend (descriptively) +; negative trend (descriptively) −; no difference (descriptively) 0
[5] = Day 14 necropsy, Group 6: 5.8 Gy, subcutaneous, 0.34 mg/kg, Days 1, 2 and 3
[6] = Group 6 GL (SCx1): 0.34 mg/kg SC SID Day 1, 2, 3, therapeutic, 5.8 Gy

B1: G-CSF: Neupogen (Filgrastim; Granulocyte colony-stimulating factor; G-CSF), positive control article, Amgen (protein, UniProt P09919 31-207, looked up)
Granulocyte …: TPLGPASSLPQSFLLKCLEQVRKIQGDGAALQEKLVSECATYKLCHPEELVLLGHSLGIPWAPLSSCPSQALQLAGCLSQLHSGLFLYQGLLQALEGISPELGPTLDTLQLDVADFATTIWQQMEELGMAPALQPTQGAMPAFASAFQRRAGGVLVASHLQSFLEVSYRVLRHLAQP
modifications: filgrastim
notes: Neupogen (Filgrastim; Granulocyte colony-stimulating factor; G-CSF), positive control article, Amgen
For B1, the “ARS scoring for coat” value (C57BL/6 mice [1]; Day 9) was “increased percentage of mild grade”, the “ARS posture score, most frequent grade (mode)” value (C57BL/6 mice [1]; Day 15, control group 2 mild (65%)) was “normal” and the “Supporting variable: ARS scores (trend)” value (C57BL/6 mice [1]) was “+”. The “Dead (irradiation related deaths)” value (C57BL/6 mice [2]) was 1, the “Irradiation related death rate, Rate (per 100 Days)” value (C57BL/6 mice [2]) was 0.42 per 100 Days and the “Survival after 30 days (Kaplan-Meier estimate)” value (C57BL/6 mice [2]) was 0.90. The “Time at Risk” value (C57BL/6 mice [2]) was 237 days, the “Time to 10% death, Time” value (C57BL/6 mice [2]) was 12 days and the “Hazard ratio (Cox regression, risk of radiation induced death)” value (C57BL/6 mice [2]; reference group VL (POx1), 2) was 0.72. The “Quantity ratio of survival probability (dose reduction factor, DRF), day 30, relative to control group” value (C57BL/6 mice [2]; vs VL (POx1), 2) was 1.1, the “Body weight: Estimate, change relative to vehicle group 2” value (C57BL/6 mice [3]; Day 0) was -0.5 g and the “Body weight: Estimate, change relative to vehicle group 2” value (C57BL/6 mice [3]; Day 3) was 0.3 g. The “Body weight: Estimate, change relative to vehicle group 2” value (C57BL/6 mice [3]; Day 9) was -0.4 g, the “Body weight: Estimate, change relative to vehicle group 2” value (C57BL/6 mice [3]; Day 15) was 0.4 g and the “Body weight: Estimate, change relative to vehicle group 2” value (C57BL/6 mice [3]; Day 21) was 3.3 g. For the same molecule, the “Body weight: Estimate, change relative to vehicle group 2” value (C57BL/6 mice [3]; Day 30) was 0.5 g, the “gross pathology: findings not typical of acute radiation syndrome” value (C57BL/6 mice [4]; [5]) was “cysts in spleen were observed” and the “gross pathology: lesions typical of acute radiation syndrome (red discoloration of organs)” value (C57BL/6 mice [4]; [5]) was “no red discoloration in the brain, testes”. The “bone marrow cellularity decrease, category” value (C57BL/6 mice [4]; Day 30, insignificant, Group 6 GL (SCx1): 0.34 mg/kg SC SID Day 1, 2, 3, therapeutic, 5.8 Gy) was “minimal category in sternum and no marked category in femur bone marrow”, the “Supporting variable: Bone marrow celluarity (trend)” value (C57BL/6 mice [4]; [6]) was “+” and the “Supporting variable: Testes degradation (trend)” value (C57BL/6 mice [4]; [6]) was “+”.
